Patent US20240294632A1 (XL PROTEIN, published 2024)

T1: P/A #1 sequence
T1 construct: in sentences on specificity it stands for P/A #1 polypeptides in general
T1 peptide: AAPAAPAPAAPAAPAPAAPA

T2: PAS #1(600)-Leptin
T2 chain: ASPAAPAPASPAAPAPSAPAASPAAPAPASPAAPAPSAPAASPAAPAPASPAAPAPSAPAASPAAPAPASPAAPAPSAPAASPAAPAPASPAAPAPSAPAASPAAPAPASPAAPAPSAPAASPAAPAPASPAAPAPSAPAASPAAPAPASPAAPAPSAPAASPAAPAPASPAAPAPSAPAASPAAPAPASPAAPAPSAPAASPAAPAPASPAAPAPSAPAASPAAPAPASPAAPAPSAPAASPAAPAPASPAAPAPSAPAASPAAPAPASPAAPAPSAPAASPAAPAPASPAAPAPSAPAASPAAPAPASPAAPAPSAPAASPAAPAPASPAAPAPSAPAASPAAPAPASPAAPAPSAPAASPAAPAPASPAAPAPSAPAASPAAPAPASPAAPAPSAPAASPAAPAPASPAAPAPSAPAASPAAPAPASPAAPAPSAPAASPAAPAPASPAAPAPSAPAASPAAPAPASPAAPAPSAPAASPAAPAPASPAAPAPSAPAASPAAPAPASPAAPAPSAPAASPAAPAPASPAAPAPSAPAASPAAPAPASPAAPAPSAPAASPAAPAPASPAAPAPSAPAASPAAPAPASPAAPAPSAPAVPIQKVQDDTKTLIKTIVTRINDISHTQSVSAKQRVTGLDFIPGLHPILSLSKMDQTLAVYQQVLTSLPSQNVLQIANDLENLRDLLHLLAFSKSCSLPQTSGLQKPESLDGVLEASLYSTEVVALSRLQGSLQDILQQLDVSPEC

T3: H1GA-PAS #1(200)-His6
T3 construct: also called C-terminally PASylated Anticalin H1GA-PAS #1(200)-His6
T3 chain: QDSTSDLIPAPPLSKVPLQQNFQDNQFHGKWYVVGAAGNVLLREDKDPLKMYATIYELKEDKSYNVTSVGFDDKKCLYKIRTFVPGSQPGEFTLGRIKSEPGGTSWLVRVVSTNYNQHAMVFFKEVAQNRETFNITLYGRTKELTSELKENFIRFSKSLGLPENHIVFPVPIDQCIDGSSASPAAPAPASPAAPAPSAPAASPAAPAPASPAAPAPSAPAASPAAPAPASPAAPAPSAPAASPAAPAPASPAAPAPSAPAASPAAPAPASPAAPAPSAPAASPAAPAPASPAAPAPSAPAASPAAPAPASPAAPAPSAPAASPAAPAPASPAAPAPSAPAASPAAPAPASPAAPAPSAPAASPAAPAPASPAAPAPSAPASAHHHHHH

T4: PASylated Thymosin alpha 1
T4 construct: also called PASylated Tα1
T4 chain: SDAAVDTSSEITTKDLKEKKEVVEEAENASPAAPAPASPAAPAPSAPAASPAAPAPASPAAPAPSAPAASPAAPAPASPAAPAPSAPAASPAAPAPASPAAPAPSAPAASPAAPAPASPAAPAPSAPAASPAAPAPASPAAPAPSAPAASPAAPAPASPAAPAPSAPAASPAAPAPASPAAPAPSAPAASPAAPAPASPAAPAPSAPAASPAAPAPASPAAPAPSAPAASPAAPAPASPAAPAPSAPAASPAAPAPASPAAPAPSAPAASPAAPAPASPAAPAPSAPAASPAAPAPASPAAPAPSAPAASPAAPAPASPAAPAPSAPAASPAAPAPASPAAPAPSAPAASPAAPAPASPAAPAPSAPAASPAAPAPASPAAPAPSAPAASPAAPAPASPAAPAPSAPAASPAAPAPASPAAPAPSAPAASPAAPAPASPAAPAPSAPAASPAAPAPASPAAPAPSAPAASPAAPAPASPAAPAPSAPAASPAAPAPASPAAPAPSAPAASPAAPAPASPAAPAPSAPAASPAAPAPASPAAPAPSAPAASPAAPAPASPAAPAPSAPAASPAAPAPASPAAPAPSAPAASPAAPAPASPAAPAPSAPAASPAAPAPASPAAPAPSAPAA

B1: Fab fragment of Anti-PA(S) MAb 1.2 (Fab, V domains shown)
VH: QVQLVESGGGLVQPGGSLKLSCAASGFTFSSYGMSWVRQTPDKRLELVATINSNGGSTYYLDSVKGRFTISRDKAKNTLYLQMSSLKSEDTAMYYCVRGGSIYDGYDYAMDYWGQGTSVTVSS
VL: DIVLTQSPASLAVSLGQRATISCRASQSVSTSSYSYMHWFQQKPGQPPKLLIKYASNLESGVPARFSGSGSGTDFTLNIHPVEEEDTATYYCQHSWEIPLTFGAGTKLELKR
notes: also called Anti-PA(S) MAb 1.2 Fab; anti-PAS Fab 1.2
B2: Anti-PA(S) MAb 1.2 (antibody, V domains shown)
VH: QVQLVESGGGLVQPGGSLKLSCAASGFTFSSYGMSWVRQTPDKRLELVATINSNGGSTYYLDSVKGRFTISRDKAKNTLYLQMSSLKSEDTAMYYCVRGGSIYDGYDYAMDYWGQGTSVTVSS
VL: DIVLTQSPASLAVSLGQRATISCRASQSVSTSSYSYMHWFQQKPGQPPKLLIKYASNLESGVPARFSGSGSGTDFTLNIHPVEEEDTATYYCQHSWEIPLTFGAGTKLELKR
notes: Mouse monoclonal IgG from hybridoma (culture supernatant); alkaline phosphatase conjugate in the thymosin sandwich ELISA
B3: Anti-PA(S) MAb 1.1 (antibody, V domains shown)
VH: QVQLKESGPGLVAPSQSLSITCTVSGFSLTGYGVNWVRQPPGKGLEWLGMIWGDGITDYNSALKSRLSISKDNSKSQVFLKMNSLQTDDTARYYCARDYYGRRYYAMDYWGQGTSVTVSS
VL: DIVLTQSPASLAVSLGQRATISCRASKSVSSSGYNYMFWYQQKPGQPPKLLIYLASNLESGVPDRFWGSGSGTDFTLNIHPVEEEDAATYYCQHSRELPLTFGAGTKLELKR
notes: Mouse monoclonal IgG from hybridoma (culture supernatant); also called anti-PAS 1.1 MAb; DSM ACC3365

Legend:
IL1Ra-PAS#1(800) = experiment: ELISA, Fab titrated on IL1Ra-PAS#1(800) (x axis: Fab concentration)
P/A #1 sequence [1] = biological target: T1, P/A #1 sequence; experiment: ELISA and SPR with Fabs
StrepII-eGFP-PAS #1(200) = biological target: T5, StrepII-eGFP-PAS #1(200); experiment: affinity chromatography on Fab coupled to a 1 ml HiTrap NHS column, elution with 1 M L-prolinamide; A280/A488 traces and SDS-PAGE of the fractions
T5 construct: also called StrepII-eGFP-PAS #1(200) fusion protein

P/A#1(600)-GMCSF = experiment: ELISA, Fab titrated on P/A#1(600)-GMCSF
PAS #1(600)-Leptin [2] = biological target: T2, PAS #1(600)-Leptin; experiment: ELISA, Fab titrated on PAS#1(600)-Leptin (x axis: Fab concentration)
PAS #1(200)-IL1Ra [3] = biological target: T6, PAS #1(200)-IL1Ra; experiment: SPR, biotinylated antigen on CAPture chip, Fab as analyte, 1:1 model
T6 construct: PASylated fusion protein produced in E. coli; Biotinylated for the SPR measurements with Fabs

PAS #1(600)-Leptin [4] = biological target: T2, PAS #1(600)-Leptin; experiment: ELISA, antigen coated, Fab titrated
H1GA-PAS #1(200)-His6 = biological target: T3, H1GA-PAS #1(200)-His6; experiment: affinity chromatography of a periplasmic extract on Fab coupled to a 1 ml HiTrap column, elution with 1 M L-prolinamide; blank-corrected A280 trace and SDS-PAGE [B]
PAS #1(200)-IL1Ra [5] = biological target: T6, PAS #1(200)-IL1Ra; experiment: SPR, MAb from hybridoma supernatant captured by anti-mouse antibody, antigen as analyte, bivalent analyte model
hu4D5-PAS #1(200) [6] = biological target: T7, hu4D5-PAS #1(200); experiment: MAb capture ELISA: MAb from hybridoma supernatant captured by anti-mouse IgG Fc, hu4D5-PAS#1(200) titrated (x axis: antigen concentration)
T7 construct: Detected with anti-human kappa light chain antibody in the capture ELISA

hu4D5-PAS #1(200) [7] = biological target: T7, hu4D5-PAS #1(200); experiment: MAb capture ELISA, hybridoma supernatant on anti-mouse IgG Fc, antigen titrated
IL1Ra (Kineret/Anakinra) = biological target: T8, IL1Ra (Kineret/Anakinra) (UniProt P18510 26-177); experiment: western blot, hybridoma supernatant 1:2000
T8 construct: Commercial drug product; also called non-PASylated protein version

[8] = biological target: T4, PASylated Thymosin alpha 1; experiment: sandwich ELISA in diluted rat plasma: MAb 2.1 coated as capture antibody, MAb 1.2-alkaline phosphatase as detection reagent; calibration curve
P/A #1(200)-IL1Ra [9] = biological target: T9, P/A #1(200)-IL1Ra; experiment: Western blot of the fusion protein after SDS-PAGE; anti-mouse IgG Fc-AP, BCIP/NBT [G]
T9 construct: PASylated fusion protein produced in E. coli; Biotinylated for the SPR measurements with Fabs

P/A #1 sequence [10] = biological target: T1, P/A #1 sequence; experiment: SPOT peptide array / hybridoma screening
[11] = biological target: T10, anti-Galectin-PAS(200) Fab fragment; experiment: SPR, MAb 1.1 covalently coupled to a CM5 chip, PASylated anti-Galectin Fab injected
T10 construct: also called PASylated humanized anti-Galectin Fab fragment; PAS-Fab

P/A #1(200)-IL1Ra [12] = biological target: T9, P/A #1(200)-IL1Ra; experiment: Western blot of the fusion protein after SDS-PAGE; anti-mouse IgG Fc-AP, BCIP/NBT [F]

T9 sequence (chain, as listed by the source limits assumed): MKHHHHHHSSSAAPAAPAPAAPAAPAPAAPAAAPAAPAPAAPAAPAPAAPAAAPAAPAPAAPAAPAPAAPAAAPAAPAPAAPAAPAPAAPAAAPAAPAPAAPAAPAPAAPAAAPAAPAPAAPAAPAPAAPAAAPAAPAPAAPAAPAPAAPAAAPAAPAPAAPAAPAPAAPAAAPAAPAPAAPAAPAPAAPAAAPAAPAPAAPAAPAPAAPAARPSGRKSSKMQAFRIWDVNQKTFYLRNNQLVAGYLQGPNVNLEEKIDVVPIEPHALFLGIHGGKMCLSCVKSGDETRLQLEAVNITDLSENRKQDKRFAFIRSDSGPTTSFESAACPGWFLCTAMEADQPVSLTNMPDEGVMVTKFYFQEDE
T8 sequence (P18510 26-177 limits assumed): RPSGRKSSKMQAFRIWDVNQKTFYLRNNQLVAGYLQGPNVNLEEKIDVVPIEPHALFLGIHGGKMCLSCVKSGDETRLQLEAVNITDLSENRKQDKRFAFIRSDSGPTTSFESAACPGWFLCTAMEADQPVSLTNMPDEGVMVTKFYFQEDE
T10 sequence (chain, as listed by the source): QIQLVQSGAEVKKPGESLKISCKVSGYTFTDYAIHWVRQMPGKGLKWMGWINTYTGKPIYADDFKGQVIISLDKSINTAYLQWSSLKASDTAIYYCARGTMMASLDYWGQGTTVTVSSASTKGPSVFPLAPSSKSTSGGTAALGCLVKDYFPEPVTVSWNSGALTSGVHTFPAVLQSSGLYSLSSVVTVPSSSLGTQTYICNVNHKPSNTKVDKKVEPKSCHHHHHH

Binder	EC50 (read off the curve) (IL1Ra-PAS#1(800)) [nM]	binding result (P/A #1 sequence [1])	binding result (StrepII-eGFP-PAS #1(200))	binding result (P/A#1(600)-GMCSF)	EC50 (read off the curve) (PAS #1(600)-Leptin [2]) [nM]	Kd (PAS #1(200)-IL1Ra [3]) [µM]	Kd (PAS #1(600)-Leptin [4]) [nM]	binding result (H1GA-PAS #1(200)-His6)	Kd (PAS #1(200)-IL1Ra [5]) [nM]	EC50 (read off the curve) (hu4D5-PAS #1(200) [6]) [nM]	Kd (hu4D5-PAS #1(200) [7]) [nM]	binding result (IL1Ra (Kineret/Anakinra))	binding result [8]	binding result (P/A #1(200)-IL1Ra [9])	binding result (P/A #1 sequence [10])	binding result [11]	binding result (P/A #1(200)-IL1Ra [12])
B1	~200	no binding	binds	no binding (tested: 4000 nM)	~100	3.7	123	binds	–	–	–	–	–	–	–	–	–
B2	–	–	–	–	–	–	–	–	44	~0.2	0.162	no binding	binds	no binding (tested: hybridoma supernatant diluted 1:2000)	no binding	–	–
B3	–	–	–	–	–	–	–	–	1	–	0.037	no binding	–	–	no binding	binds	no binding (tested: hybridoma supernatant diluted 1:2000)
